In patent publication US20200277377A1 (WUXI BIOLOGICS SHANGHAI, published 2020):
Where a chain is given by its changes, count along the chain named.

What was measured:
[1] = molecular target: T1, hCTLA4_ECD.His point mutant Y60 to alanine (human, UniProt P16410 36-161); experiment: capture ELISA, alanine scan, vs silent alanine substitutions
T1 construct: extracellular domain; alanine-scan mutein, HEK293F supernatant
T1 sequence (looked up): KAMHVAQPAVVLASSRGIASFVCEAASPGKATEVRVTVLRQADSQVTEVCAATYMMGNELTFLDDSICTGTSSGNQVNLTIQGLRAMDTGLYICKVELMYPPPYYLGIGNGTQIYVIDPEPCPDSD
Experimental: (§1) In order to test how the mutations affect antibody-binding, a capture ELISA was conducted. […] After interacting with the supernatant that contains quantified CTLA4 muteins, HRP conjugated anti-His antibody (1:5000; Rockland Immunochemicals, Pottstown, Pa.) was added as detection antibody. TMB was used as substance of HRP. Absorbance was normalized according to the average of control mutants. After setting an additional cutoff to the binding fold change (<0.55), the final determined epitope residues were identified.

[2] = molecular target: T2, hCTLA4_ECD.His point mutant R70 to alanine (human, UniProt P16410 36-161); experiment: as above
T2 construct: extracellular domain; alanine-scan mutein, HEK293F supernatant
T2 sequence (looked up): T1 sequence (looked up) with A25Y, R35A
Experimental: as §1

[3] = molecular target: T3, hCTLA4_ECD.His point mutant E83 to alanine (human, UniProt P16410 36-161); experiment: as above
T3 construct: extracellular domain; alanine-scan mutein, HEK293F supernatant
T3 sequence (looked up): T1 sequence (looked up) with A25Y, E48A
Experimental: as §1

[4] = molecular target: T4, hCTLA4_ECD.His point mutant C85 to alanine (human, UniProt P16410 36-161); experiment: as above
T4 construct: extracellular domain; alanine-scan mutein, HEK293F supernatant
T4 sequence (looked up): T1 sequence (looked up) with A25Y, C50A
Experimental: as §1

[5] = molecular target: T5, hCTLA4_ECD.His point mutant P136 to alanine (human, UniProt P16410 36-161); experiment: as above
T5 construct: extracellular domain; alanine-scan mutein, HEK293F supernatant
T5 sequence (looked up): T1 sequence (looked up) with A25Y, P101A
Experimental: as §1

[6] = molecular target: T6, hCTLA-4.ECD.hFc-Biotin (human, UniProt P16410 36-161, biotinylated (sites not given)); experiment: FACS competition, hCTLA-4.ECD.hFc-Biotin on CD86-expressing CHO cells
T6 construct: extracellular domain; also called Biotinylated CTLA-4.ECD.hFc; biotinylated human CTLA4.ECD.hFc; not shown: human Fc tag (hFc)
T6 sequence (looked up): T1 sequence (looked up) with A25Y
Experimental: PE conjugated Streptavidin was purchased from eBioscience (Catalog number 12-4317).
Then the mixtures of antibody and CTLA-4 were added to the cells and incubated for 1 hour at 4° C. The cells were washed two times with 200 μL FACS buffer (DPBS containing 1% BSA). Streptavidin PE 1 to 333 diluted in FACS buffer was added to the cells and incubated at 4° C. for 1 hour. Additional washing steps were performed two times with 200 μL FACS buffer followed by centrifugation at 1500 rpm for 4 minutes at 4° C. Finally, the cells were resuspended in 100 μL FACS buffer and fluorescence values were measured by flow cytometry and analyzed by FlowJo.

[7] = molecular target: T7, human CTLA-4.ECD-6×His (human, UniProt P16410 36-161); experiment: SPR, antibody captured on anti-human Fc, CTLA-4.ECD-6×His as analyte, 1:1 fit
T7 construct: extracellular domain; also called WBP316.hCTLA-4.ECD-6×His; hCTLA4-His (WT)
T7 sequence: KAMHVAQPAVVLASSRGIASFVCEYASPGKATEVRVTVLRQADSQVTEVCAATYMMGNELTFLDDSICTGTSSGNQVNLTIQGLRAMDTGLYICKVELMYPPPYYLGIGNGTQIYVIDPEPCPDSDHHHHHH
Experimental: (§2) Biacore T200, Series S Sensor Chip CMS, Amine Coupling Kit, and 10×HBS-EP were purchased from GE Healthcare. […] In immobilization step, the activation buffer was prepared by mixing 400 mM EDC and 100 mM NHS immediately prior to injection. The CM5 sensor chip was activated for 420 s with the activation buffer. 30 μg/mL of goat anti-human IgG Fcγ antibody in 10 mM NaAc (pH 4.5) was then injected to Fc1-Fc4 channels for 200 s at a flow rate of 5 μL/min. The chip was deactivated by 1 M ethanolamine-HCl (GE). Then the antibodies were captured on the chip. Briefly, 4 μg/mL antibodies in running buffer (HBS-EP+) was injected individually to Fc3 channel for 30 s at a flow rate of 10 μL/min. […] Regeneration buffer (10 mM Glycine pH 1.5) was injected at 10 μL/min for 30 s following every dissociation phase.
(§3) The binding kinetics of these antibodies were measured using SPR. The antibodies were captured on immobilized anti-human Fc and CTLA-4-ECD at different concentration was injected orderly. The sensorgrams for reference channel and buffer channel were subtracted from the test sensorgrams. The data was used for 1:1 binding analysis on human, monkey and mouse CTLA-4.ECD-6×His.

[8] = molecular target: T8, cynomolgus monkey CTLA-4 ECD-6×His (cynomolgus monkey); experiment: as above
T8 construct: extracellular domain; Bought; also called cynomoguls monkey CTLA-4.ECD-6×His
Experimental: as §2, §3

B1: W3162_1.154.8-z35-uAb.IgG1K (antibody, V domains shown)
VH: QVQLVQSGAEVKKPGSSVKVSCKASGYTFTNYFMNWVRQAPGQGLEWMGRVDPEQGRADYAEKFKKRVTITADKSTSTAYMELSSLRSEDTAVYYCARRAMDNYGFAYWGQGTLVTVSS
VL: EIVLTQSPDFQSVTPKEKVTITCSANSALSYMYWYQQKPDQSPKLWVHGTSNLASGVPSRFSGSGSGTDFTLTINSLEAEDAATYYCHHWSNTQWTFGGGTKVEIK
notes: Humanized; label says IgG1K
Binder B1 has a Fold change [1] of 0.24 fold, a Fold change [2] of 0.515 fold and a Fold change [3] of 0.479 fold. For the same binder, the Fold change [4] was 0.218 fold, the Fold change [5] was 0.155 fold and the IC50 [6] was 280 pM. For the same binder, the Kd [7] was 96.8 pM, the koff [7] was 0.000119 s⁻¹ and the kon [7] was 1.23e+06 M⁻¹ s⁻¹. The Kd [8] was 131 pM, the koff [8] was 0.000122 s⁻¹ and the kon [8] was 932000 M⁻¹ s⁻¹.

B2: W3162-1.146.19-z12-uAb.IgG1K (antibody, V domains shown)
VH: QVQLQESGPGLVKPSETLSLTCSVTYHTITSGYDWTWIRKPPGKGMEWIGYISYSGNTNYNPSLKSRVTISRDTSKNQFFLKLSSVTAADTAVYYCASMMVPHYYVMDAWGQGTLVTVSS
VL: DIVMTQTPLSLSVTPGQPASISCRSSQSLLNSDGNTYLYWYLQKPGQSPQLLIYLVSKLGSGVPNRFSGSGSGTDFTLKISRVEAEDVGVYYCVQGTHDPWTFGGGTKVEIK
notes: Humanized; label says IgG1K
B2 was tested, and the Fold change [1] was 0.223 fold, the Fold change [2] was 0.507 fold and the Fold change [3] was 0.405 fold. It also gave a Fold change [4] of 0.256 fold, a Fold change [5] of 0.231 fold and an IC50 [6] of 5150 pM. The Kd [7] was 477 pM, the koff [7] was 9.82e-05 s⁻¹ and the kon [7] was 206000 M⁻¹ s⁻¹. The Kd [8] was 1920 pM, the koff [8] was 0.000331 s⁻¹ and the kon [8] was 173000 M⁻¹ s⁻¹.
